Assay results from the DeepSol protein solubility set.

Experiment: soluble on expression in E. coli; label from the status in PepcDB or PDB records

Sequence | soluble on expression in E. coli
MNAPIEPHRFILEPFEAHRFANLCGQFDEHLRLIEQRLAIEIRNRGNQFELIGEPRTTSAAEQLLRRLYRETKATDLSPETVHLYLQESAVENIDNPAVNEVSVSLRTRKGNIRPRGLNQQRYVKEILANDINFGIGPAGTGKTYLAVACAVDALEREQVRRILLVRPAVEAGEKLGFLPGDLAQKIDPYLRPLYDALYEMLGFEHVAKLIERQVIEIAPLAYMRGRTLNNSFIILDESQNTTLEQMKMFLTRIGFGSTAVITGDITQVDLPRGTKSGLAHVIEVLKDVPGISFTHFQPKDVVRHPLVQRIVEAYDRFEARQPKPEASGKDA | not soluble
GIDPFTMAAYTIVKEEESPIAPHRLFKALVLERHQVLVKAQPHVFKSGEIIEGDGGVGTVTKITFVDGHPLTYMLHKFDEIDAANFYCKYTLFEGDVLRDNIEKVVYEVKLEAVGGGSKGKITVTYHPKPGCTVNEEEVKIGEKKAYEFYKQVEEYLAANPEVFA | soluble
AMAISDPQSSTRNELETGSSSACPKVIYIFARASTEPGNMGISAGPIVADALERIYGANDVWVQGVGGPYLADLASNFLPDGTSSAAINEARRLFTLANTKCPNAAIVSGGYSQGTAVMAGSISGLSTTIKNQIKGVVLFGYTKNLQNLGRIPNFETSKTEVYCDIADAVCYGTLFILPAHFLYQTDAAVAAPRFLQARIG | soluble
MGSDKIHHHHHHMSESHLYTYGIIDDNESLALNVDGVAGATRAYTVSYRSLSAVVSDIETTDPERTDAAVEAHNTVLQAVLEHDATRAVVPMSFGMAFKNARTLKGVLRGARRALRSTLTEIAGTVELGVKVLAPGDDTAVDTAAVRSDVTARLSALSVGETENDCFTDRLIINKSYLVEHDTRDAFDAAIDEIDAAHDDLTVRYTGPWPPYNFVDIHIGAEQAQQGGR | not soluble
MSLARRHELSIALILQDKFTIAAFSGFIDALRLAADDAAKSRQIRVAWKVFAQHRSPVMASCGLRVATEDGLPVPEDYDYIAICGGNSFADAAPAPQLAQLIQRAHRARVGLLGICTGSFAIARAGLIGDRRFCIHWNVAEPFKALFPRAQISVDRIFIDEGDVITCAGSTAAIDLALYLVMRHCGQDRAQQVMRHMMLSQMRPATMPQAHFYQLPPGDSHPRLRRALHFMEQQLDHPPSVGAIARYCGVSVRQLERIFLQALGQTPNAAFRQMRLNYGRYLLSAGTLPVTEIAHIAGFSDAAHFSREFRRAFHETPSAHRRARSHGPDEGHHHHHH | soluble
MVARNDNLKPFSERSVDEARELGRKGGKASGEVRRKKADLKRAISIVLSSEVPSSKMAKTLKEMGYENTNEMAMVLSMTQKAIKGDVKAASWISNIIQPAKVEHEVEMSVGVDEKRKVAEEYIRGLFNNDTGNSTEENN | not soluble
MNPLKKIKDWIAEGKAGWHLAGGRSSLKQGKYKEALKEFRKALKARPNNPEILHYNAITLLKLKRPEKALECYEKILKNNPKLAEAWNNKGLVLKELGRYDEALECYEKALKINPKYAGAWNNKALVLKELGRYDEALECYEKALQINPKLADAWYNKGSVLIYLKKYKKALKCFEKAIELNPKNYRAWGTKGITLHNLKIYEEALKCYDKVLQLNPQDDKAWNNKGLVFNELGRYDESLECYEKALQINPKLAEAWNNKGVVLSELGRYEEALECYEKALEIDPEDDKTWNNKGLVLEELGKYKDALECFQKALEINPEFADAWKWKGIILEDLKKPEESLKCYKKALKLNPPKQNTMVHARKNTTKTRQTQRSTKML | not soluble
FDKTVLQIFANYCVAAAESMAHTLMRTAHSAFVKETEDFSCTIMTPRGQTFASPKTLGATWYPGLDFSGAIDMIDGYEPGDICMTNDAYSGYVATHTPDIMMWKPVYYQGEMVCFVGGHIHNTDMGGAVPASLSRTLTEVHQEGIRFPPTKIVRRGVLNEELMRLMELNVRSPDQNRGDLQAQTAMLMTGERRIVEIIERFGLQAFKEGMAAMLDYSEQQARAIVRAMPDGEYFFAEYANEDSLNGKPLRVAITLRIRGDELEFDFTGSDPQLTSSLNMPTGGKERHVLALVGLNYVLYSLNPEILLNAGMLRVARCILPEGSVVNPLAPAAVGMRSLTCKVVQYATMGVFSQVVPDRLPASPAGGMSIVNVKTTDRDGKTIIAAIEPVGGGAGGDPYSDGADASGAIVAFLRNTPVEINETEVPIRITRYGMVPDSGGPGRYRGGLGTCMEFQVYTPNSAVTARNRDRSRFASWGVLGGKAGTVSRFLRNPGTAHEEDLGVHDFIHCQPGDVIRLEGCGGGGYGSPWERDPARVLHDVRCGYV | not soluble
MSLVWLAELPDEILENLYPGEDVLYSVKKKLYTELKPKYLIVTDRRIIYLDQKILGRYDLIDIPYEKLEFVHFKKGKIGAKFIIRNEEGEEIVLTWMEKDEAEKAIEAIRDAINAIAVEPVSIQKRKGILGFELELSKPKEFITRTYPQAVAKAAPKEDPIERIRKLKELYESGVISREEFEEKKRKLLDQIEGHHHHHH | soluble
MEFMRVERVLLKDYTTLGVGGPAELWTVETREELKRATEAPYRVLGNGSNLLVLDEGVPERVIRLAGEFQTYDLKGWVGAGTLLPLLVQEAARAGLSGLEGLLGIPAQVGGAVKMNAGTRFGEMADALEAVEVFHDGAFHVYCPEELGFGYRKSHLPPGGIVTRVRLKLKERPKEEILRRMAEVDRARKGQPKRKSAGCAFKNPPGQSAGRLIDERGLKGLRVGDAMISLEHGNFIVNLGQARAKDVLELVRRVQEELPLELEWEVWP | soluble
MGSDKIHHHHHHMVRGRKIMSLVTDLPAIFDQFSEARQTGFLTVMDLKERGIPLVGTYCTFMPQEIPMAAGAVVVSLCSTSDETIEEAEKDLPRNLCPLIKSSYGFGKTDKCPYFYFSDLVVGETTCDGKKKMYEYMAEFKPVHVMQLPNSVKDDASRALWKAEMLRLQKTVEERFGHEISEDALRDAIALKNRERRALANFYHLGQLNPPALSGSDILKVVYGATFRFDKEALINELDAMTARVRQQWEEGQRLDPRPRILITGCPIGGAAEKVVRAIEENGGWVVGYENCTGAKATEQCVAETGDVYDALADKYLAIGCSCVSPNDQRLKMLSQMVEEYQVDGVVDVILQACHTYAVESLAIKRHVRQQHNIPYIAIETDYSTSDVGQLSTRVAAFIEML | not soluble
MSLDVTLTQPSIPDQSEDRRVRTSGSLAGHLPYGMADTLGKHEHLSTVDLVVPRFNASETEMLLGLFDGQALSSGGSKIAKYLHENFGHIFALELKALKTRLNETPVDALRRAFLALNKDLVTIAIQQSEERPIQTHRNSGQPIILTKEDLNSGGVATVVYLQSTELYVANVGDAQAMVIQTDGTHKMLTRKHDPAEPTERSRIREAGGWVSRNGRLNDLLQVSRAFGYVDLMPAVQAAPYVSNMTIREQDDIILIATGELWEYLSPGLVTDVARAERQDLMRAAQKLRDLAIAYGASGKIMVMMISVADEGHHHHHH | soluble
MAGDPMNVNVEDNAKVTLTSQGATKIYKTPSNHVEQYQTFNLKDNAYLEYVADPIIAYENAKFYQHNTFNLNNSSSLFYTDILTPGYSKTGEAFKYQYMHLINEIYIEDELVTYDNLLLNPNKQSINEIGYMEHYSHYGSAYFIHEDVNQKLIDSVYETISSYSNTFDCRVAISQLPTHGFAVRIFAYRTQIIEKILGIIQSYIAENIYDRKLDFLRKYLEHHHHHH | not soluble
MSLARCERLRGAALRDVLGRAQGVLFDCDGVLWNGERAVPGAPELLERLARAGKAALFVSNNSRRARPELALRFARLGFGGLRAEQLFSSALCAARLLRQRLPGPPDAPGAVFVLGGEGLRAELRAAGLRLAGDPSAGDGAAPRVRAVLVGYDEHFSFAKLREACAHLRDPECLLVATDRDPWHPLSDGSRTPGTGSLAAAVETASGRQALVVGKPSPYMFECITENFSIDPARTLMVGDRLETDILFGHRCGMTTVLTLTGVSRLEEAQAYLAAGQHDLVPHYYVESIADLTEGLEDEGHHHHHH | soluble
MGSDKIHHHHHHMLRVAVVGGGPSGSCAAEVLAKAGIQTWLFERKLDNAKPCGGAIPLCMVDEFDLPESIIDRKVRNMRMISPSNREVDITLDKVYSPDDKSEYIGMCRREVMDAFMRDRAASLGTNLINGLVTKIDTGSNRQGPYTITYSDYSTGKSTGEAKSLEVDLIIGADGANSRVATAMDAGDYNVAIAFQERIKLPNEEMAYYEDLAEMYVGTDVSPDFYGWVFPKYDHVAVGTGTMQKNQTLIKSLQKGVRERAKKRLVHGEVIKVEAHPIPEHPRPRRVVGRMALVGDAAGYVTKSSGEGIYFAAKSGRMCAEQIVESSRSGELIPSEADLKKYLKKWDRKYGSTYIVLSILQAIFYSNDTAREAFVAMCDDMDVQRLTFDSYLYKKVVAMNPWQQIKLTLLTVDALARGIFRNQTSYKPVPSAVRSDEEVNAMLEIKTITGGIKVDNNKDASKQNLASEQEERDPAVSNKS | not soluble
MSLNGITKYVEKLTFFNIQSGKQVEFNRDEKVILSNVPFIQQLPELDRGCEVTSLAMMLQYAGITVDKMKLANEIKKVDFMNDGVRGNPNEGFVGNIYTFSESGYGVYHGPLFQLAKKYLPNKAVDLTGKSIEELYKSVKAGQPVVIITNATFAPLDEDEFTTWETNNGDVSITYNEHCVVLIGYDQESVYIRDPLKDSLDVKVPREKFEQAWVQMGSQAISYVKRSKEGHHHHHH | soluble
MSLKSTDIKIVEAKFSTEEVPFRTPLKFGGRVMDSSVLLNVEVIVETRNGKQGIGIGSMPAGNIWAWPSAVVSPEDSLKAMIEFLKEAVEIANICPEVAHPIDLMYHISAEYHFMAKKLSKRLGLAEEIPELAQLVASSPLDAAIHDGFGRANHINSYNGLSAEYMSHDLTEYLDDQFKGEYLDQYTLRDPKPTLPLYHLVGALDPITEADISERVDDGLPETLGEWIKADGLTHLKIKLSGDNMDWDISRVIAVENEAVKAQGERGQDKWVYSLDFNEKCENVDYVLDFLNKIREQTPAAFDRVQYIEQPTNRDLKANPENKMHEAAKIKPVVIDESLVDYESLLLSRELGYSGVALKACKGQTESLFLGAAAQKFDMFLCVQDLTCCGYSFLHSASLAARIPSIAAIEGNGRQYCPGPNKKWKRSYPGMFNITDGTVKTSEGHHHHHH | not soluble
MVTPIAVVGPTASGKSALGIALAHKLDGEVVNVDSMQLYKGMDIGTAKLTVEEREGIAHHQLDVWDVTETASVARFQSDAVADVEDIMSRGKTPILVGGSMLYVQSLVDDWQFPPTDSAVRARFEARLADIGVEALHAELTQLDPEAAAVIESNDPRRTVRALEVIELTGQPFQASQPPKDAPPRWGTRIIGLKTTPEWLNPRIEQRTARMFEQGFVAEVEHLVQQGLIADSTAGRAIGYSQVLAAMAGEMTWEDAFERTVTGTRRYVRRQRSWFNRDHRVSWVDASGDPTAQALEILGLQLEHHHHHH | soluble
MGAFFVGAIWLTAAEAFCPAPKGLLPATVLRVVDGDTLHLKDGRRLRMIGLNAPELAGKGRPAEPFAEAARQRLRQLVAQSGGRVGLLPGRERQDRYGRVLAHVYGVTGINFEARLIAEGLAYRIAVLPNVALASCQKAAENHARRAGLGLWRRSPVLKAQQIHRAGFALFEGRVSRVQRNRGGLWITLQGQVVLRIAPNVLRRFDRRLLSGLSGRRIEARGWVVDRSRQPGRQSAHPRWMLSVTDPSMLGLILEHHHHHH | not soluble
MREIVWVHSQRIAPYKTLILNEFCYYPLELDPTPFNALIFTSKNAVFSLLETLKNSPKLKMLQNIPAYALSEPTAKTLQDHHFKVAFMGEKAHGKEFVQEIFPLLEKKSVLYLRAKEIVSSLDTILLEHGIDFKQAVVYENKLKHLTLSEQNALKPKEKSILIFTAISHAKAFLHYFEFLENYTAISIGNTTALYLQEQGIPSYIAKKPSLEACLELALSLRIKEC | not soluble
